Experimental data published in patent publication US20150368340A1 (US Dept. of Health and Human Services, published 2015).

Legend:
[1] = target: cell surface-associated glypican-3 (GPC3) (human) (UniProt P51654); assay: co-IP of GPC3 and Wnt3a from HepG2 xenograft tumor tissue after three weeks of 20 mg/kg HS20 (mutated form); blocked partner Wnt3a (FIG. 17B)
[2] = target: T1, cell surface-associated glypican-3 (GPC3) (human, UniProt P51654 25-554, two heparan sulfate (HS) chains on the C-terminal portion; GPI anchor); assay: cell-based or functional assay
[3] = target: T1, cell surface-associated glypican-3 …; assay: cell-based or functional assay; remark: listed apart in the source
[4] = target: T2, recombinant human GPC3 with His tag (GPC3-his) (human, UniProt P51654 25-559, heparan sulfate chains); assay: ELISA on recombinant GPC3 protein (FIG. 13B)
T2 construct: range 25-559; also called GPC3 alone; purified GPC3; not shown: six-histidine tag

[5] = target: cell surface-associated glypican-3 (GPC3) (human) (UniProt P51654); assay: cell-based or functional assay
[6] = target: T2, recombinant human GPC3 with His tag …; assay: ELISA on recombinant GPC3 protein against HS molecules alone (FIG. 13B)
[7] = target: T2, recombinant human GPC3 with His tag …; assay: ELISA, purified GPC3 coated at 1 µg/ml, HN3-hFc titrated, one-site binding fit (FIG. 4A)
[8] = target: T1, cell surface-associated glypican-3 …; assay: flow cytometry on G1 cells, HN3-hFc titrated, one-site binding fit (FIG. 4B)
GPC3 C-terminal fragment = target: T3, GPC3 C-terminal fragment (human, UniProt P51654 359-559, limits assumed); assay: phage ELISA on recombinant GPC3 fragments (FIG. 5B)
T3 construct: domain: C-terminal fragment; also called C-terminus alone
T3 sequence (looked up): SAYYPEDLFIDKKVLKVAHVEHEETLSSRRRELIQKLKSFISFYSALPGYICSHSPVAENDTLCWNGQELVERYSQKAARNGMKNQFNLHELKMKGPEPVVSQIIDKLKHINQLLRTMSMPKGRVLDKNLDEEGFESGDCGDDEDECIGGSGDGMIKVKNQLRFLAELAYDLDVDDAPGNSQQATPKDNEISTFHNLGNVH

GPC3 N-terminal fragment = target: T4, GPC3 N-terminal fragment (human, UniProt P51654 25-358); assay: as above
T4 construct: domain: N-terminal fragment; also called N-terminus alone

“HS20 Mt (HS20 IgG with the N-glycosylation site of the VL removed) (antibody)” was tested, and the percent of the GPC3-Wnt3a interaction blocked [1] was 70%.

B1: HN3(VH)-PE38 immunotoxin (other)
chain: QVQLVQSGGGLVQPGGSLRLSCAASYFDFDSYEMSWVRQAPGKGLEWIGSIYHSGSTYYNPSLKSRVTISRDNSKNTLYLQMNTLRAEDTATYYCARVNMDRFDYWGQGTLVTVSSSAAKASGGPEGGSLAALTAHQACHLPLETFTRHRQPRGWEQLEQCGYPVQRLVALYLAARLSWNQVDQVIRNALASPGSGGDLGEAIREQPEQARLALTLAAAESERFVRQGTGNDEAGAANGPADSGDALLERNYPTGAEFLGDGGDVSFSTRGTQNWTVERLLQAHRQLEERGYVFVGYHGTFLEAAQSIVFGGVRARSQDLDAIWRGFYIAGDPALAYGYAQDQEPDARGRIRNGALLRVYVPRSSLPGFYRTSLTLAAPEAAGEVERLIGHPLPLRLDAITGPEEEGGRLETILGWPLAERTVVIPSAIPTDPRNVGGDLDPSSIPDKEQAISALPDYASQPGKPPREDLK
B1 was tested, and the “cytotoxicity IC50 (WST-8), G1 cells, molar” value [2] was 0.0002 nM, the “cytotoxicity IC50 (WST-8), Hep3B cells, molar” value [2] was 0.0004 nM and the “cytotoxicity IC50 (WST-8), HepG2 cells, molar” value [2] was 10 nM. The “cytotoxicity IC50 (WST-8), Huh-1 cells, molar” value [2] was 0.0012 nM, the “cytotoxicity IC50 (WST-8), Huh-7 cells, molar” value [2] was 1.3 nM and the “cytotoxicity IC50 (WST-8), G1 cells” value [3] was 0.01 ng/mL. The “cytotoxicity IC50 (WST-8), Hep3B cells” value [3] was 0.02 ng/mL, the “cytotoxicity IC50 (WST-8), HepG2 cells” value [3] was 549 ng/mL and the “cytotoxicity IC50 (WST-8), Huh-1 cells” value [3] was 0.06 ng/mL. The “cytotoxicity IC50 (WST-8), Huh-4 cells” value [3] was greater than 1000 ng/mL and the “cytotoxicity IC50 (WST-8), Huh-7 cells” value [3] was 64 ng/mL.

B2: HS20 human IgG (HS20 Wt mAb) (antibody, V domains shown)
VH: EVQLLESGGGLVQPGGSLRLSCAASGFTFSSYAMSWVRQAPGKGLEWVSTIQKQGLPTEYADSVKGRFTISRDNSKNTLYLQMNSLRAEDTAVYYCAKNRAKFDYWGQGTLVTVSS
VL: DIQMTQSPSSLSASVGDRVTITCRASQSISSYLNWYQQKPGKAPKLLIYNASMLQSGVPSRFSGSGSGTDFTLTISSLQPEDFATYYCQQNRGFPLTFGQGTKVEIK
modifications: N-glycosylation site at residue 50 of SEQ ID NO: 16 (CDR2)
notes: also called HS20 IgG; HS20 mAb
In the case of B2, the Kd [4] is reported as 0.75 nM, the decrease in wound closure efficiency (wound healing assay, Hep3B cells, 50 µg/ml HS20) [5] is reported as greater than 30% and the “fold stronger binding than on HS alone” value [6] is reported as no less than 1000 fold.

B3: HN3-human Fc fusion protein (HN3-hFc) (Fc fusion, not shown: a dimerising Fc or GST)
chain: QVQLVQSGGGLVQPGGSLRLSCAASYFDFDSYEMSWVRQAPGKGLEWIGSIYHSGSTYYNPSLKSRVTISRDNSKNTLYLQMNTLRAEDTATYYCARVNMDRFDYWGQGTLVTVSSS
notes: also called HN3 human mAb
B3 was tested, and the “cell growth inhibition (WST-8), Hep3B cells, IC50” value [2] was roughly 50000 ng/mL, the “cell growth inhibition (WST-8), Huh-7 cells, IC50” value [2] was roughly 50000 ng/mL and the Kd [7] was 0.64 nM. For the same molecule, the Kd [8] was 0.15 nM.

B4: HN3 single-domain VH displayed on phage (clone HN3) (VHH)
VHH: QVQLVQSGGGLVQPGGSLRLSCAASYFDFDSYEMSWVRQAPGKGLEWIGSIYHSGSTYYNPSLKSRVTISRDNSKNTLYLQMNTLRAEDTATYYCARVNMDRFDYWGQGTLVTVSS
B4: no binding (GPC3 C-terminal fragment); no binding (GPC3 N-terminal fragment).
